Biological target: the molecule itself
Assay: co-IP

B1: Slk19 (recombinant; Slk19-HA-His and Slk19-Myc-His) (natural protein, budding yeast, UniProt Q08581 1-821, looked up)
chain: MNEVPTTPVRLILGQAQQREQNSENCSQERNPRTFNSEPDSSFNSPGSSQFVIHPHEPLEKEKDEKQDLDRSIDYGRSSALNNKNNANPLENIDINKMFDDKKSDSGTNDDKGGASTSDKHVLALNYSPIRVEMNSSEKRSDKNVDVDENDKEGSHINKKLKLQLESVPDLKQSSTKDIINDKEEIMSSPMAIDMIETNISPNKFIINDGVERNDSFNINTDTLKLENDINEKQQEEDFIKSNSNNVVNIDNAYKEKEDEENDITNSHINRLTPLYETSARESNSNEEGRNDYDDDNQLDIRHDNFQIVAKRNEELTDQIYHLNQMLNSLISKNESLSFQYEKLNKNHQLLIDLTNEKLDKLNTERESDIAKVEKFKKRIKELNTEIKVLNSNQKILQEKFDASITEVNHIKGEHENTVNTLQQNEKILNDKNVELENMKAELKGNNDKLSEYETTLNDLNSRIVQLNDKIESTDIVLKSKENELDNLKLSLKETLSISKDFNDSDLIGQINELISTKNNLQQKMDDLNNLNDDNLKVVQDKLIKNEETLKLKEAEIDSLNSEMDELKKQITSKDDEFKMWQSKYETVEDEAKIRNAEVTELNGDIEDLKESKLHLEETITELENKVHKLENECELEKQKFEKTSLELESLQLKNSNIQAEHIKELENLHENLISLQNELKISSDRITTLTKENEVLMEQNNNNNNSVTLSNDQKDRDDEKIKSLGKQVQDWKEKYEAKEKDTNKRLKLLAEDLYIQYSSKHEQKVKLLKKGYENKYQNKFDQLNLENKTLSEEIEQLNKQLSSEREEKQELLKLLENEKK
  binding result: binds

From article PMC3583661 (Molecular Biology of the Cell, 2013)
